Legend:
Details in all cases: both partners purified
[1] = target: T1, CMGE (budding yeast CMG helicase, Cdc45-Mcm2-7-GINS, together with DNA polymerase ε) (S. cerevisiae, UniProt P29469 1-868; P24279 1-971; P30665 1-933; P29496 1-775; P53091 1-1017; P38132 …); assay: co-IP; purified proteins mixed: 1–10 nM Rrm3/Rrm3N-BacPif1/BacPif1 with 15 nM CMG and 30 nM Pol ε, 10 min on ice; anti-Sld5 beads, 30 min 4 °C; 25 mM Hepes-KOH pH 7.6, 400 mM KOAc, 0.02% NP-40-S, 0.1 mg/mL BSA, 1 mM DTT, 10 mM Mg(OAc)2; immunoblotting
T1 construct: Mcm2, S. cerevisiae, subunit of CMG; Mcm3, S. cerevisiae, subunit of CMG (CBP-TEV-MCM3); Mcm4, S. cerevisiae, subunit of CMG; Mcm5, S. cerevisiae, subunit of CMG; Mcm6, S. cerevisiae, subunit of CMG; Mcm7, S. cerevisiae, subunit of CMG; Cdc45, S. cerevisiae, subunit of CMG (CDC45iFLAG2, internal FLAG tag; detected by anti-FLAG immunoblotting); Sld5, S. cerevisiae, GINS subunit of CMG …

[2] = target: T2, GINS tetramer (Sld5, Psf1, Psf2, Psf3), S. cerevisiae (S. cerevisiae, UniProt Q03406 1-294; Q12488 1-208; P40359 1-213; Q12146 1-194); assay: co-IP; purified proteins mixed: 10 nM FLAG-Rrm3 with 15 nM GINS, 10 min on ice; anti-FLAG M2 magnetic beads; 25 mM Hepes-KOH pH 7.6, 200 mM KOAc, 0.02% NP-40-S, 0.1 mg/mL BSA, 1 mM DTT, 10 mM Mg(OAc)2; immunoblotting
T2 construct: Sld5, GINS subunit, S. cerevisiae; Psf1, GINS subunit, S. cerevisiae; Psf2, GINS subunit, S. cerevisiae; Psf3, GINS subunit, S. cerevisiae; pJL005 with TwinStrep-Psf3; also called tetrameric GINS complex; source: purified as previously described (Yeeles et al, 2015; Lewis et al, 2022); copies: + + +
T2 sequence (looked up) 1: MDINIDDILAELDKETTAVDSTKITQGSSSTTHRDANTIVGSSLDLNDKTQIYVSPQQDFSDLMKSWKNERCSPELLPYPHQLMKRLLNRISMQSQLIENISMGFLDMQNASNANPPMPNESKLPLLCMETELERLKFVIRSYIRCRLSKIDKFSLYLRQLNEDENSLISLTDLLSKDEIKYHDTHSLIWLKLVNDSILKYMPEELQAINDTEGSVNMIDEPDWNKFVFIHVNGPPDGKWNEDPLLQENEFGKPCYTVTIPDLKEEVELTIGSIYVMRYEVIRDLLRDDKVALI
T2 sequence (looked up) 2: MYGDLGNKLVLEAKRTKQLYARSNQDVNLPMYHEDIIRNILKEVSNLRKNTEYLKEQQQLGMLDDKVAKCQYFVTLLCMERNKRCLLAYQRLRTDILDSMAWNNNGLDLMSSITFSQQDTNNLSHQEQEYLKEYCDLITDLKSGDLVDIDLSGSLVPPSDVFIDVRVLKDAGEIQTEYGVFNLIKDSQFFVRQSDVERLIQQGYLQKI
T2 sequence (looked up) 3: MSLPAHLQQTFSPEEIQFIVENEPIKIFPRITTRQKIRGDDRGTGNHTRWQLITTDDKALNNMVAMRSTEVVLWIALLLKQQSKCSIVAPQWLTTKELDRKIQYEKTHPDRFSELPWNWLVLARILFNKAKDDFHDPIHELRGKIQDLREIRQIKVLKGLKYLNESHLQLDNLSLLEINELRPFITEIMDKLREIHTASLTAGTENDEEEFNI
T2 sequence (looked up) 4: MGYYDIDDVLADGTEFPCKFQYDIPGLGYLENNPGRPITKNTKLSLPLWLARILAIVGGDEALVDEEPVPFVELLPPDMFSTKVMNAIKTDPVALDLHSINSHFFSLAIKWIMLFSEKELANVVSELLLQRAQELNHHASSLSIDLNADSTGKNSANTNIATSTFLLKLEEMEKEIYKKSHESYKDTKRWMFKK

[3] = target: T3, DNA polymerase ε (Pol2, Dpb2, Dpb3, Dpb4), S. cerevisiae (S. cerevisiae, UniProt P21951 1-2222; P24482 1-689; P27344 1-201; Q04603 1-196); assay: co-IP; purified proteins mixed: 10 nM FLAG-Rrm3 with 15 nM Pol ε, 10 min on ice; anti-FLAG M2 magnetic beads; 25 mM Hepes-KOH pH 7.6, 400 mM KOAc, 0.02% NP-40-S, 0.1 mg/mL BSA, 1 mM DTT, 10 mM Mg(OAc)2; immunoblotting
T3 construct: Pol2, catalytic subunit of DNA polymerase ε, S. cerevisiae; Dpb2, second largest subunit of DNA polymerase ε, S. cerevisiae; Dpb3, subunit of DNA polymerase ε, S. cerevisiae; Dpb4, subunit of DNA polymerase ε, S. cerevisiae (DPB4-TEV-CBP); also called Polε; Pol ε; source: S. cerevisiae strain yAJ2, purified as previously described (Yeeles et al, 2015); copies: + + +
T3 sequence (P21951 whole entry, chain 1 of 4): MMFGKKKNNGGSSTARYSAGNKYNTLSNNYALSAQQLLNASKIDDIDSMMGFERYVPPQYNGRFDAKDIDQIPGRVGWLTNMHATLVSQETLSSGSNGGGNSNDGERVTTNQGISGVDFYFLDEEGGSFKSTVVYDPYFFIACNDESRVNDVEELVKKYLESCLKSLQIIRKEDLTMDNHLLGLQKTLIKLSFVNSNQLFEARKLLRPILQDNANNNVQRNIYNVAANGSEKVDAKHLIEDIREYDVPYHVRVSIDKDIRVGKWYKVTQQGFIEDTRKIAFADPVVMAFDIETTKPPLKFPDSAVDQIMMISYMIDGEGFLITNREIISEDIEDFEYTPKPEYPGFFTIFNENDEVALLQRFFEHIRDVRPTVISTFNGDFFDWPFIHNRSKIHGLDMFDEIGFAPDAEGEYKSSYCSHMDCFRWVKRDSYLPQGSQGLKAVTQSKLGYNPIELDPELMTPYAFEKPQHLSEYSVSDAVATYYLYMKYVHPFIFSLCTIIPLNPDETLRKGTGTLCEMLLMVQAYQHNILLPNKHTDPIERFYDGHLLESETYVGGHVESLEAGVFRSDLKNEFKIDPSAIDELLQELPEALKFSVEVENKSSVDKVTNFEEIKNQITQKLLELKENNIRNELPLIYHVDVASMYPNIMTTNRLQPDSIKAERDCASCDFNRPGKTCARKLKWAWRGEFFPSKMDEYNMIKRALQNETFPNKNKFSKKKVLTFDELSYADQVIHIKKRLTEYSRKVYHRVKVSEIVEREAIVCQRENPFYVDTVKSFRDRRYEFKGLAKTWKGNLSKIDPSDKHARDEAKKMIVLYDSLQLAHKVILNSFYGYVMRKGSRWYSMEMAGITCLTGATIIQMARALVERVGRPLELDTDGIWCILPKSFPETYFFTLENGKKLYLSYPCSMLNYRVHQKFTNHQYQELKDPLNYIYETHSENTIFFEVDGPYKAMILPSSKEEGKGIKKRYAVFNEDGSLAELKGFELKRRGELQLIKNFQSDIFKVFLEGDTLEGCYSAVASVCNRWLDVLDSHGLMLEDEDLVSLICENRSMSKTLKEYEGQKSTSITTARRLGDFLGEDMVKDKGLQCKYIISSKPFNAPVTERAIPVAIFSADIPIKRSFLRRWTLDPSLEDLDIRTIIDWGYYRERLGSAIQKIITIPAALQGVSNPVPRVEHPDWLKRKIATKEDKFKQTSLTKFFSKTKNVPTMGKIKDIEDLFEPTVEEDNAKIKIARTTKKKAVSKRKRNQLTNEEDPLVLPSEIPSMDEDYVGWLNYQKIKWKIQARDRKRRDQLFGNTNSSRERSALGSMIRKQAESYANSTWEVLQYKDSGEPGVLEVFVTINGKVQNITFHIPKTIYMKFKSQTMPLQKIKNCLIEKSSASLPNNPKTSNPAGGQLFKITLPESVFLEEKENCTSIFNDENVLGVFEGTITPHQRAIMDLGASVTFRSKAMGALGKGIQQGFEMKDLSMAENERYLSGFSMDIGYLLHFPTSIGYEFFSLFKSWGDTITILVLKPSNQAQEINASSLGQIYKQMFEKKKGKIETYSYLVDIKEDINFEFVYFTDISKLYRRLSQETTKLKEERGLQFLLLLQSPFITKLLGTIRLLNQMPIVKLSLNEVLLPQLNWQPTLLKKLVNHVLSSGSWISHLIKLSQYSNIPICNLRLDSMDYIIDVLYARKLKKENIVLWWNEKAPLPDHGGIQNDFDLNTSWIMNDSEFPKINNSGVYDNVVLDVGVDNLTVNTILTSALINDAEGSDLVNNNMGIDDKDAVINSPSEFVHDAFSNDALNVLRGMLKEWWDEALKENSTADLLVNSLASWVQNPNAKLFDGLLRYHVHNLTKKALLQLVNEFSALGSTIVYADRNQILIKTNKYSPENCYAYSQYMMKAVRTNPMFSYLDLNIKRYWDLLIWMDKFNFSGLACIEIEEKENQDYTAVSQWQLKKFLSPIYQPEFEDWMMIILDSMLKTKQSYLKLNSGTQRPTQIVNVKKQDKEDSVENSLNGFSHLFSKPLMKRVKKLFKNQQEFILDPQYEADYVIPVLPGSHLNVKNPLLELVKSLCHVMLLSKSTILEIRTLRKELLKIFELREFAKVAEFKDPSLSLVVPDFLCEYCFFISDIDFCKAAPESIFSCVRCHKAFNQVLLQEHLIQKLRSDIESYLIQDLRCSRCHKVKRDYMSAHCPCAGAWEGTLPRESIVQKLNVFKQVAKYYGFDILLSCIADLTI
T3 sequence (P24482 whole entry, chain 2 of 4): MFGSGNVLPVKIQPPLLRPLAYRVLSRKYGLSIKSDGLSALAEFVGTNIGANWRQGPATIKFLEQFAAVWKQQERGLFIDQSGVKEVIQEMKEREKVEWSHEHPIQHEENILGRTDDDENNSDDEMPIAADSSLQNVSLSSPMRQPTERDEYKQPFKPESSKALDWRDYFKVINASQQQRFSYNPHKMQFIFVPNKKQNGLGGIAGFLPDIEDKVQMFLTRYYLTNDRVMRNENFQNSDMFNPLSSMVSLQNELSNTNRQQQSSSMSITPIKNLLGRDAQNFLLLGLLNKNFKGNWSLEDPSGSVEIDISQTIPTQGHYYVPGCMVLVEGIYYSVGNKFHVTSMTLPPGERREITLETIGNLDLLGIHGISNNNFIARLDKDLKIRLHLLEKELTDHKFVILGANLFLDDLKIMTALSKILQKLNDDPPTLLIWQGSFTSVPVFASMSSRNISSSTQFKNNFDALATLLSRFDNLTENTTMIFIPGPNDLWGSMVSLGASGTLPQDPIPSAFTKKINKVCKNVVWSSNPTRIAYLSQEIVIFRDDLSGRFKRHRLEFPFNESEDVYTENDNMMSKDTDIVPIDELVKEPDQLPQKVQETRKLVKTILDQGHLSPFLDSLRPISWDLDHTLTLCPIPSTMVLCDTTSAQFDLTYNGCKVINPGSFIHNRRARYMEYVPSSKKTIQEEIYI
T3 sequence (P27344 whole entry, chain 3 of 4): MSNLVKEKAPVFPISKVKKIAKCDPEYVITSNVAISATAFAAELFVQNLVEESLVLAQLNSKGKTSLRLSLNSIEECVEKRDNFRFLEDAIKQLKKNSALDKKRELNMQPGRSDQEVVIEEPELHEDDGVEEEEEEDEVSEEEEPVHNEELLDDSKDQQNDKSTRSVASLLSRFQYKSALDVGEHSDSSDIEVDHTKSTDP
T3 sequence (Q04603 whole entry, chain 4 of 4): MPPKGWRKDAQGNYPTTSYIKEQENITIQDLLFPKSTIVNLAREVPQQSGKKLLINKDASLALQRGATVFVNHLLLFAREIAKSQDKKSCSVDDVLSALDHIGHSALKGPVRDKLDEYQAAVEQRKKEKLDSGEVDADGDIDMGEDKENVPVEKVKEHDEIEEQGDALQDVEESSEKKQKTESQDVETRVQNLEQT

Measured: binding result

B1: Rrm3 (wild-type, FLAG-tagged) (enzyme, S. cerevisiae, UniProt P38766 1-723, looked up)
chain: MFRSHASGNKKQWSKRSSNGSTPAASASGSHAYRQQTLSSFFMGCGKKSAAASKNSTTIIDLESGDEGNRNITAPPRPRLIRNNSSSLFSQSQGSFGDDDPDAEFKKLVDVPRLNSYKKSSRSLSMTSSLHKTASASTTQKTYHFDEDETLREVTSVKSNSRQLSFTSTINIEDSSMKLSTDSERPAKRSKPSMEFQGLKLTVPKKIKPLLRKTVSNMDSMNHRSASSPVVLTMEQERVVNLIVKKRTNVFYTGSAGTGKSVILQTIIRQLSSLYGKESIAITASTGLAAVTIGGSTLHKWSGIGIGNKTIDQLVKKIQSQKDLLAAWRYTKVLIIDEISMVDGNLLDKLEQIARRIRKNDDPFGGIQLVLTGDFFQLPPVAKKDEHNVVKFCFESEMWKRCIQKTILLTKVFRQQDNKLIDILNAIRYGELTVDIAKTIRNLNRDIDYADGIAPTELYATRREVELSNVKKLQSLPGDLYEFKAVDNAPERYQAILDSSLMVEKVVALKEDAQVMMLKNKPDVELVNGSLGKVLFFVTESLVVKMKEIYKIVDDEVVMDMRLVSRVIGNPLLKESKEFRQDLNARPLARLERLKILINYAVKISPHKEKFPYVRWTVGKNKYIHELMVPERFPIDIPRENVGLERTQIPLMLCWALSIHKAQGQTIQRLKVDLRRIFEAGQVYVALSRAVTMDTLQVLNFDPGKIRTNERVKDFYKRLETLK
notes: Rrm3 Pif1-family 5'-3' DNA helicase, S. cerevisiae; helicase domain printed as residues 230-723; Gene codon optimised for expression; a TEV site lies between the 3FLAG tag and Rrm3; also called WT Rrm3; full-length Rrm3; source: S. cerevisiae strain yTDK9, purified (anti-FLAG M2 resin, HiTrap heparin); not shown: 3FLAG, N-terminal, kept
binds: all assays above

Reference: publication PMC11405395 (The EMBO Journal, 2024)
